# Experimental data reported in paper PMC8876323, “Heat Shock Transcription Factor CgHSF1 Is Required for Melanin Biosynthesis, Appressorium Formation, and Pathogenicity in Colletotrichum gloeosporioides”.
# T1: CgHSF1 (Colletotrichum gloeosporioides)
# T1 chain: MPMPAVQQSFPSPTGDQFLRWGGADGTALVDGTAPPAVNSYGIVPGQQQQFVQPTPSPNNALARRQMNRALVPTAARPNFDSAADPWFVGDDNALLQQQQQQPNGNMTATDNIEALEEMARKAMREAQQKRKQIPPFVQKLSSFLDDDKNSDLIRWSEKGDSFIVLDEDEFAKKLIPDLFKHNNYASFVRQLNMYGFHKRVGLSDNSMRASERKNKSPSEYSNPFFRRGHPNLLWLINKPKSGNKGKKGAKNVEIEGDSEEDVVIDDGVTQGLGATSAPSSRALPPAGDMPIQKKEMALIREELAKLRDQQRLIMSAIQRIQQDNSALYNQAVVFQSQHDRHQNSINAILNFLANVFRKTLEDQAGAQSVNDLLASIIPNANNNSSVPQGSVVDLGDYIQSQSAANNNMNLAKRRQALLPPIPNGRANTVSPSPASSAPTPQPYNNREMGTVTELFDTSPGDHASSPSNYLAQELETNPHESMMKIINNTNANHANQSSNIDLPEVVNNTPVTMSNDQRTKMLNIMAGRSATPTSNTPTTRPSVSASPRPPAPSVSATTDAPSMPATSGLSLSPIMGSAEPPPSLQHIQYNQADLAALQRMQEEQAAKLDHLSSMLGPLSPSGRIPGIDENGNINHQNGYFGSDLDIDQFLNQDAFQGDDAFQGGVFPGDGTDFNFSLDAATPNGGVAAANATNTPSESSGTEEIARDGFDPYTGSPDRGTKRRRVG
# Molecular target: T1, CgHSF1
# Experiment: EMSA
# Conditions: protein: recombinant; tags: His (Ni-NTA purified, pCOLD vector); blunt
row,Binder,binding result
1,CMR1-probe (dsDNA) DNA 1: CGTATCACTTGTTCGAATTTCTCACACATTCGGT DNA 2: ACCGAATGTGTGAGAAATTCGAACAAGTGATACG,binds
2,YG-probe (dsDNA) DNA 1: TGTGGTGGTTTGAGAACATTCACTCAAAGCTCAC DNA 2: GTGAGCTTTGAGTGAATGTTCTCAAACCACCACA,binds
3,T4HRa-probe (dsDNA) DNA 1: CGAGTAAGGCACGCGAAGTTCAGGAGAGAGACCT DNA 2: AGGTCTCTCTCCTGAACTTCGCGTGCCTTACTCG,binds
